Test results taken from patent US20240168030A1, “DIRECT FLUORESCENT GLYCAN LABELING” (BIO-TECHNE CORPORATION, priority 2019, published 2024).

B1: FUT7: α-3 fucosyltransferase strictly active on sialyllactosamine (protein, UniProt Q11130 1-342, looked up)
Alpha-(1,3)-fucosyltransferase …: MNNAGHGPTRRLRGLGVLAGVALLAALWLLWLLGSAPRGTPAPQPTITILVWHWPFTDQPPELPSDTCTRYGIARCHLSANRSLLASADAVVFHHRELQTRRSHLPLAQRPRGQPWVWASMESPSHTHGLSHLRGIFNWVLSYRRDSDIFVPYGRLEPHWGPSPPLPAKSRVAAWVVSNFQERQLRARLYRQLAPHLRVDVFGRANGRPLCASCLVPTVAQYRFYLSFENSQHRDYITEKFWRNALVAGTVPVVLGPPRATYEAFVPADAFVHVDDFGSARELAAFLTGMNESRYQRFFAWRDRLRVRLFTDWRERFCAICDRYPHLPRSQVYEDLEGWFQA
B2: FUT6: recombinant α-3 fucosyltransferase active on lactosamine and sialyllactosamine (protein, UniProt P51993 1-359, looked up)
4-galactosyl-N-acetylglucosami …: MDPLGPAKPQWSWRCCLTTLLFQLLMAVCFFSYLRVSQDDPTVYPNGSRFPDSTGTPAHSIPLILLWTWPFNKPIALPRCSEMVPGTADCNITADRKVYPQADAVIVHHREVMYNPSAQLPRSPRRQGQRWIWFSMESPSHCWQLKAMDGYFNLTMSYRSDSDIFTPYGWLEPWSGQPAHPPLNLSAKTELVAWAVSNWGPNSARVRYYQSLQAHLKVDVYGRSHKPLPQGTMMETLSRYKFYLAFENSLHPDYITEKLWRNALEAWAVPVVLGPSRSNYERFLPPDAFIHVDDFQSPKDLARYLQELDKDHARYLSYFRWRETLRPRSFSWALAFCKACWKLQEESRYQTRGIAAWFT

Key:
Format in all cases: biochemical
[1] = Enzymatic synthesis of Le^x and sLe^x by glycan gel electrophoresis, substrate G0
Protocol: (§1) FIG. 21A. Schematic view of the enzymatic steps for Le^X and sLe^X synthesis on the antibody glycan G0. The glycan short names follow that of FIG. 10. FIG. 21B Kinetic comparison of galactosylation on G0 by B4GalT1, sialyation on G2 by ST3Gal4 and ST6Gal1, and fucosylation on A2[3] by FUT7. The reaction time for B4GalT1 was 10 minutes. The reaction time for ST3Gal4, FUT7 and ST6Gal1 was 5 hours. In each case, the labeling enzyme was subject to a 3-fold serial dilution starting from 1 μg each of B4GalT1, FUT7 and ST6Gal1, and 3 μg ST3Gal4. FIG. 21C. […] Reaction time for both cases was 20 minutes. […] FIG. 21D. […] Reaction time for both cases was 20 minutes.
(§2) For a typical labeling reaction, 1 μg to 5 μg target protein was mixed with 0.2 nmol fluorophore-conjugated GDP-fucose and 0.2 μg of a fucosyltransferase in 30μL 25 mM Tris pH 7.5, 10 mM MnCl2. The mixture was incubated at 37° C. for 30 minutes. […] To release labeled glycans from a glycoprotein, the sample was first denatured by heating at 95° C. for two minutes in the presence of 0.5% SDS and 80 mM β-mercaptoethanol and then renatured with 1% Triton X-100, and finally treated with PNGase F at 10:1 mass ratio at 37° C. for 20 minutes. To release glycans from antibody, a sample was directly treated with Endo S at 10:1 mass ratio at 37° C. for 20 minutes. All samples were separated by sodium dodecyl sulfate—polyacrylamide gel electrophoresis (SDS-PAGE) at […]. For separating labeled glycoproteins and antibodies, 4-20% gradient SDS gel was used. For separating labeled free glycans, 15% or 17% gel was used. After separation, all gels were imaged using a FluorChem M imager (ProteinSimple, Bio-Techne, Minneapolis, MN). For glycoproteins samples, the gel was also imaged with traditional methods such as silver staining or trichloroethanol (TCE) staining.
(§3) For sLe^x synthesis, G0 was first converted to G2 by B4GalT1, then converted to A2[3] by ST3Gal4, and finally converted to A2[3]F2 (carrier of sLe^x) by FUT7 (FIG. 21A). […]

[2] = system: fetal bovine fetuin and asialofetuin; assay: Labeling of fetuin and asialofetuin by fucosyltransferases with GDP-Cy5-Fuc; conditions: GDP-Cy5-Fuc donor, FIG. 9A
Protocol: FIG. 9A-FIG. 9B show exemplary results of probing substrate glycans of various fucosyltransferases on fetuin and asialofetuin. FIG. 9A. Probing substrate glycans of fucosyltransferases with guanosine 5′-diphosphate activated Cy5 conjugated fucose (GDP-Cy5-Fuc). […] FUT9 labeled itself (indicated by an arrow in the gel). FIG. 9B. Tolerance of Alexa-Fluor®555 (555), Alexa-Fluor®488 (488), and Cy5 by the indicated fucosyltransferases. All reactions were incubated at 37° C. for 30 minutes and then separated on SDS-PAGE and imaged with silver staining (upper panels) and fluorescent imager (lower panels). M, molecular marker.
For a typical labeling reaction, 1 μg to 5 μg target protein was mixed with 0.2 nmol GDP-f-Fuc and 0.2 μg of a fucosyltransferase in 30 μL buffer of 25 mM Tris pH 7.5, 10 mM MnCl2. The mixture was incubated at 37° C. for 30 minutes. The reaction was then separated by sodium dodecyl sulfate—polyacrylamide gel electrophoresis (SDS-PAGE) and the gel was directly imaged using a fluorescent imager FluorChem M ProteinSimple, Bio-Techne, Minneapolis, MN), followed by imaging with traditional protein imaging methods such as silver staining or trichloroethanol (TCE) staining.
The labeled samples were then separated on SDS-PAGE, followed by traditional protein gel imaging and fluorescent imaging.

[3] = Enzymatic synthesis of sLe^x by glycan gel electrophoresis, substrate A2[3]; conditions: for Activity based on reaction completion: completed product sLe^x
Protocol: as §1, §2, §3

[4] = Enzymatic synthesis of Le^x and sLe^x by glycan gel electrophoresis, substrate G2; conditions: substrate G2, completed product Le^x
Protocol: as §1, §2
For sLe^x synthesis, G0 was first converted to G2 by B4GalT1, then converted to A2[3] by ST3Gal4, and finally converted to A2[3]F2 (carrier of sLe^x) by FUT7 (FIG. 21A). During these steps, different amounts of enzymes, and multiple reaction times were applied to reveal the intermediate products.
Intermediate products are signs for the progress of each enzymatic step.

Molecule | Time for the complete conversion of G0 to G2 ([1]; FIG. 21B) | Activity based on reaction completion ([1]; substrate G0, completed product G2) | Relative activity ([1]; substrate G0, product G2, normalized to FUT6 on sLe^x synthesis) | Which of fetuin and asialofetuin the fucosyltransferase labeled [2] | Activity based on reaction completion [3] | Relative activity ([3]; product sLe^x, normalized to FUT6 on sLe^x synthesis) | Activity based on reaction completion [4]
β-1,4-Galactosyltransferase 1 [B4GalT1] | 10 min | 2.3 pmol/min/µg | 17 |  |  |  | 
B1 |  |  |  | labeled fetuin | 0.38 pmol/min/µg | 2.8 | 
B2 |  |  |  | labeled both fetuin and asialofetuin | 13.5 pmol/min/µg |  | 2.3 pmol/min/µg
